From the supplement of paper PMC9170038

System: MS2 coat protein
Assay: apparent KD of MS2 coat protein; higher = weaker reporter binding
Details: Eterna round: R107
Method: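 RNA-MaP round R107: designed RNA switches with theophylline, tryptophan, arginine or FMN aptamers are transcribed on-chip within common flanks. They are titrated with SNAP-549-labelled MS2 coat protein in RNA-MaP buffer (100 mM Tris pH 7.5, 80 mM KCl, 4 mM MgCl2), without ligand or with the indicated ligand. Median apparent KD per design.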

[1] = input ligand: theophylline 20 uM
[2] = input ligand: tryptophan 2.4 mM
[3] = input ligand: theophylline 2 mM

Row | Sequence | apparent KD of MS2 coat protein (input ligand: arginine 13.2 mM) [nM] | apparent KD of MS2 coat protein [1] [nM] | apparent KD of MS2 coat protein [2] [nM] | apparent KD of MS2 coat protein [3] [nM] | apparent KD of MS2 coat protein (input ligand: none) [nM]
1 | AGCCUCAUACAUGAGGAUCACCCAUGUGAUACCAGUCAGGAAACUGACCCUUGGCAGCGCAUGAGGAUCACCCAUGUGCGAGGCA [Omei Theo A Exc A v2] | 25.1 | 171 | 32.9 | – | –
2 | GAGGAAACUCACAUGAGGAUCACCCAUGUACGAGGACCGGUACGGCCGCCACUCGAAACCAUGGGCGGUUGUACAUGGAAACAUG [Design 2] | 21.4 | 33.3 | – | 34.9 | –
3 | ACAUGAGCAUCAGCCAUGUGUAUGACAUGACGAGGACCGGUACGGCCGCCACUCGACAUGAGGAUCACCCAUGUUGAGGAUCACA [Exclusion - Tryptophan A #1] | 7.95 | 11.2 | – | 11.3 | –
4 | GAUGAACUAUUUGAUACCAGACUACAUGAGGAUCACCCAUGUGAGUUUAUACUUCAGUCAGUCCCUUGGCAGCAAAUAGUUUAUC [XTheo B #6] | 38.3 | 60.9 | 42.1 | – | –
5 | AUGCUGACAAGGAGGUGUUCCUCAGCUGAUACCAGCCUGGAAACAGGCCCUUGGCAGCAGCACAUGAGGAUCACCCAUGUAAUAA [(T)'-(M)'-(T1)-(T2)-(M1)-(M2)_Design1(Mismatches)] | 56.5 | 517 | 33.4 | 12.4 | 27
6 | AGAAUAUAGUCGGCCGCCACUCUACAUACAUGAGGAUCACCCAUGUUUACAUAGUGAAUAUACAUGAGGACCGGGACAUAGGCAU [JR_SSTryptoB_Sub020] | 21.6 | 26.1 | – | 23.7 | –
7 | AAUACAGUGUCGGCCGCCACUGAAACAUGACAUGAGACAUGAGGAUCACCCAUGUACAUAAUAAACAGGACCGGGACCCAUGUAU [Same State Tryptophan B] | 28.9 | 42.4 | – | 42.5 | –
8 | GACUCUGUCGGAAGGAGCGCAGAGCCGGUCUUCUACAUGAGGAUCACCCAUGUGCUGGUUAUGCAGGUAGGUCGCCGACGCGUGG [Ismatiza] | 17 | 40.2 | 24.6 | 27.2 | 27.1
9 | GGCCGUGCGAGCGCUCGCGUGGCCGCGGAUACCAGCGAGGUCCAUCGCCCUUGGCAGCCGAACAUGAGGAUCACCCAUGUCGGUA [#1 Same State - Theophylline A Attempt #14 (HarryS)] | 8.93 | 15.2 | 9.77 | 17.3 | 11
10 | GAGUAGAGGACGGCCGCCACUAAACAUGAGGAUCACCCAUGUCGUGAUCCGUUACCUAGAGUAGAUAGGACCGGGUCAUAUAGUC [Exclusion Tryptophan B GF 16] | 20.8 | 41.5 | – | 24.5 | –
11 | UUAGAUAUGACAGAUACCAGCGUGUUAUAAAACAUGAGGAUCACCCAUGUAGUGAUCGAGCGCCCUUGGCAGCUGGUGUGUUUGG [7.R] | 69.7 | 175 | 148 | – | –
12 | AUGUCGUUGAAUAUAGCGGCUUGGAGUGAUACCAGUAUGAUCCAAUACCCUUGGCAGCAUAACAUGAGGAUCACCCAUGUUCCAG [SSTheo A #25] | 19.5 | 43.7 | 18.6 | – | –
13 | AGAUUUAUUCUGACCGGGCUCAUUCCUGAAGGAGCGCAGAACAAUGCAGGUAGGUCGCAGGACAUGAGGAUCACCCAUGUCAGGC [Inmainzais] | 15.5 | 30.2 | 24.6 | 27.2 | 22.1
14 | ACGCUGAUUGAUUACAAUCAGCGAAAAGAUACCAGCCUGGAUAUCGGCCCUUGGCAGCUUAAACCUGAGGAUCACCCUGGUAAAA [TheoAS 13 #MS2Right #BothOrNeither #AlternativeMS2] | 100 | 126 | 147 | 72.9 | 93.6
15 | CUGCCAUGCAGAGAUACCAGUGAGCCCAUAACAUGAGGAUCACCCAUGUACGCCGCAGACCACCCUUGGCAGCUCUGCAUGGCAG [&#$*@] | 21.7 | 18.4 | 16.6 | 11.4 | 17.4
16 | GCUGGACUUUCGGCCGCCACUGAGAGAGUCGUGUGAACAUGAGGAUCACCCAUGUAAUAUAUAUACAGGACCGGGAGGGUUGUGC [4.P] | 11.2 | 14.7 | – | 11.6 | –
17 | AUGUCGUUGAAUAUAGCGGCUUGGUGUGAUACCAGAAUGAUCUAAUUCCCUUGGCAGCAUUACAUGAGGAUCACCCAUGUUCAGG [SSTheo A #20] | 22 | 28 | 26.3 | – | –
18 | ACACGAAGCUGAAGGAGCGUGAUAUAAAUUUUUACAUGAGGAUCACCCAUGUUUCAUCGAUCACAGGUAGGUCGCAGAUGCGUGA [JR_SSArginiB_Sub013] | 15.2 | 16.9 | 14.8 | 16.9 | 14.4
19 | AAAAUCCUACCUGAGGAUCACCCUGGUGAAGGAGCGCCCGAAAGGGCAGGUAGGUCGCACCUGAGGAUCACCCUGGUAAACCUAA [ArgEX 24 #DoubleMS2 #OpenEnded] | 31.6 | 40.3 | 46.3 | 44.9 | 51.4
20 | UAAAUAAUCUGGGUGUAGGUAAUAACAGAUACCAGCCAGAUAACUGGCCCUUGGCAGCUGAUAACAUGAGGAUCACCCAUGUAAA [Mat - Same State Theophlline A - Mod of Eli - D20] | 47 | 114 | 55.6 | – | –
21 | CAUACUUUAGUAUGUUAUGUGGACAGUGAUACCAGAUACGAAAGUAUCCCUUGGCAGCACAACAUGAGGAUCACCCAUGUAAUUU [Theophylline A 5] | 24.4 | 24.8 | 28.2 | – | –
22 | GCCGCGGCCGCGAUACACAUGGGUGUGUAACGAGGACCGGUACGGCCGCCACUCGAGAUGGUGUACAUGAGGAUCACCCAUGUAC [Exclusion Tryp A GF14] | 10.5 | 21.5 | 13.4 | 17.4 | 14.5
23 | CGUAUUGGAAACAGUACGAGUGAUCCGGUCCGAGGACCGGUACGGCCGCCACUCGAAAUAAAUAAACAUGAGGAUCACCCAUGUA [Ex Tryptophan A 9] | 14.1 | 18.2 | – | 21.9 | –
24 | CGAUAUAUAGCGGCCGCCACUUACUCAUGAGGUAACAACAUGAGGAUCACCCAUGUUUGAGGAUCAAGGACCGGGCUAUGUAUCG [AstrosSSTryB#14] | 24.9 | 32 | – | 29.4 | –
25 | AUGUAUGUCAGAAGGAGCGUCUUUAACAUGAGGAUCACCCAUGUAACAUUGAAUUCGAUGAGACAGGUAGGUCGCUGAAUAGUAA [SS-ArgB25] | 29.7 | 66 | 21.9 | 18.8 | 35
26 | GCUGCCAUACGAAGGAGCGCUGGUGUAGUGCGGCGAACAUGAGGAUCACCCAUGUGGCAGCAGCAGGUAGGUCGCGUAUGGCAGC [EAB #14] | 12.3 | 14.6 | 11 | 12.6 | 11.2
27 | CCCAAAUAGAUCAAAGGAAUUAUACUCGAAGGAGCGUCAUAGUAGGCAGGUAGGUCGCGAGACAUGAGGAUCACCCAUGUAGAGA [sssmullin] | 33.3 | 45.6 | 34.9 | 57.2 | 51.9
28 | UGUGUCGUCUGAAGGAGCGGCCCUUGAUCCUCGUGAGACAUGAGGAUCACCCAUGUCUCGGGCCAGGUAGGUCGCAGGCGGCACA [#25 Exclusion - Arginine B] | 11.5 | 17.2 | 12.6 | 12.8 | 11.9
29 | AUCGGCCAGGGAAGGAGCGUGAAGACAUGAGGAUCACCCAUGUAGAGGCGCCGAAGGCGUUCGCAGGUAGGUCGCCCUGGCUGAU [#1 Same State - Arginine B Attempt #27 (HarryS)] | 14.7 | 23.8 | 15.8 | 17.7 | 14.7
